Measured values: IntAct's records for PubMed 22632968

B1: SUN domain-containing protein 2 (Homo sapiens), Q9UH99 (parent)
chain: MSRRSQRLTRYSQGDDDGSSSSGGSSVAGSQSTLFKDSPLRTLKRKSSNMKRLSPAPQLGPSSDAHTSYYSESLVHESWFPPRSSLEELHGDANWGEDLRVRRRRGTGGSESSRASGLVGRKATEDFLGSSSGYSSEDDYVGYSDVDQQSSSSRLRSAVSRAGSLLWMVATSPGRLFRLLYWWAGTTWYRLTTAASLLDVFVLTRRFSSLKTFLWFLLPLLLLTCLTYGAWYFYPYGLQTFHPALVSWWAAKDSRRPDEGWEARDSSPHFQAEQRVMSRVHSLERRLEALAAEFSSNWQKEAMRLERLELRQGAPGQGGGGGLSHEDTLALLEGLVSRREAALKEDFRRETAARIQEELSALRAEHQQDSEDLFKKIVRASQESEARIQQLKSEWQSMTQESFQESSVKELRRLEDQLAGLQQELAALALKQSSVAEEVGLLPQQIQAVRDDVESQFPAWISQFLARGGGGRVGLLQREEMQAQLRELESKILTHVAEMQGKSAREAAASLSLTLQKEGVIGVTEEQVHHIVKQALQRYSEDRIGLADYALESGGASVISTRCSETYETKTALLSLFGIPLWYHSQSPRVILQPDVHPGNCWAFQGPQGFAVVRLSARIRPTAVTLEHVPKALSPNSTISSAPKDFAIFGFDEDLQQEGTLLGKFTYDQDGEPIQTFHFQAPTMATYQVVELRILTNWGHPEYTCIYRFRVHGEPAH

Variants of: B1
Settings: with syne2_human SYNE2, Q8WXH0

Row | effect of a mutation on the interaction | Variant
1 | decreasing interaction strength | D542N
2 | decreasing interaction strength | L536D

Variants of: B1
Settings: with syne2_human SYNE2, Q8WXH0
Remark: another data set of the same source

Row | effect of a mutation on the interaction | Variant
3 | disrupting interaction strength | H628A
4 | disrupting interaction strength | S641E
